Test results from US20120288474A1, “COMPOSITION FOR TREATMENT OF CXCL8-MEDIATED LUNG INFLAMMATION” (PROTAFFIN BIOTECHNOLOGIE AG, priority 2009, published 2012).

Experiments:
Type in all cases: in vivo
[1] = system: C57BL/6J female mice intranasal instilled with LPS; experiment: LPS-induced acute lung inflammation, intranasal LPS instillation (Example 1)
Method: To assess potential of PA401 as anti-inflammatory in models of acute lung neutrophilia, a dose-response study with subcutaneous administration of PA401 at doses of 4, 40, 200 and 400 μg/Kg in C57BL/6J female mice intranasal instilled with LPS (0.3 μg/mouse, serotype […]) was performed. Sham instilled (saline) and Dexamethasone 3 mg/kg s.c. (administered at t=−1 h before LPS instillation) treated animals were used as controls. Bronchoalveolar lavage (BAL) was performed 4 h post LPS instillation and total cell count on BAL samples, as well as differential cell count on BAL cytospin were measured.

[2] = system: male Balb/c mice aerosolized with LPS; experiment: LPS aerosol acute lung inflammation, s.c. or i.v. treatment (Example 2)
Method: A second study was performed using a slightly different model, which imply a different mouse strain and gender (male Balb/c instead of C57BL/6) a different LPS strain and serotype (Salmonella enterica instead of E. Coli) and a different LPS administration (aerosol—3.5 mg/7 mL over 30 min—instead of intranasal). PA401 doses of 4, 40 and 400 μg/kg were administered either by s.c. or i.v. route at t=−5 and t=+3 h from LPS exposure. BAL total and differential cell count were evaluated at t=8 h, a later time point compared to the previous study.
Saline aerosolized mice and mice receiving an intra tracheal administration of Dexamethasone (20 μg/20 ∥l/mouse at t=−1 h) were used as control.

[3] = system: C57BL/6J female mice exposed to cigarette smoke; experiment: Acute model of cigarette smoke induced lung inflammation, four-day exposure (Example 3)
Method: Lung inflammation was induced in C57BL/6J female mice (a susceptible strain) by exposure to cigarette smoke of 4 to 6 cigarette over a four-day period. Dose response activity of subcutaneous PA401 treatment at the doses of 4, 40 and 400 μg/kg administered at t=+30 min and t=+6 h from smoke exposure, on cell infiltrates on bronchoalveolar lavages was evaluated 24 h after last cigarette smoke exposure. Air exposed, and Roflumilast (5 mg/kg oral) treated animals serve as controls.

[4] = system: C57BL/6J female mice exposed to cigarette smoke; experiment: Sub-chronic model of cigarette smoke induced lung inflammation, eleven-day exposure, dose frequency (Example 4)
Method: In this study lung inflammation was induced in C57BL/6J female mice by exposure to cigarette smoke of 4 to 6 cigarettes over an eleven-day period. Dose frequency activity of subcutaneous PA401 treatment at the optimal dose of 400 μg/kg, based on the study in example 3, administered at t=+30 min and t=+6 h from smoke exposure (twice a day: b.i.d.), once daily at +3 h (q.d) and every other day (q.o.d) at +3 h, on cell infiltrates on bronchoalveolar lavages was evaluated 24 h after last cigarette smoke exposure. Air exposed, and Roflumilast (5 mg/kg oral) treated animals serve as controls.

[5] = system: C57BL/6J female mice exposed to cigarette smoke; experiment: Sub-chronic model of cigarette smoke induced lung inflammation, eleven-day exposure, 400 vs 40 μg/kg (Example 5)
Method: In this study lung inflammation was induced in C57BL/6J female mice by exposure to cigarette smoke of 4 to 6 cigarettes over an eleven-day period. PA401 at the dose of 400 μg/kg daily subcutaneous was compared to the dose of 40 μg/kg daily subcutaneous. Treatment was performed at t+3 h and effects on cell infiltrates on bronchoalveolar lavages were evaluated 24 h after last cigarette smoke exposure. Air exposed, Roflumilast (5 mg/kg oral) treated animals as well as animals treated with the CXCR2 antagonist SCH527123 (10 mg/kg twice a day oral-total daily dose 20 mg/kg) serve as controls.

[6] = system: male Balb/c mice exposed to LPS aerosol; experiment: LPS aerosol lung inflammation, intra-tracheal local delivery to the lung (Example 6)
Method: In this experiment lung inflammation was induced by the delivery of LPS by aerosol (Salmonella enterica, 3.5 mg/7 mL over 30 min) in male Balb/c mice. PA401 was administered intra-tracheally (i.t.) using a MicroSprayer (FJM-250 syringe; PennCentury), a device that allows delivery of a plume of aerosol (mass median diameter 16-22 μm) directly into the lungs. PA401 i.t. administration was performed at the doses of 100, 40, 10 and 4 μg/kg either 1 h before LPS exposure, or 1 h after the end of LPS exposure. Bronchoalveolar lavage (BAL) was performed 8 h post LPS exposure and total cell and neutrophil numbers were measured. Dexamethasone 20 μg/20 μl mouse i.t. was used as reference compound.

[7] = s.c. 4-400 μg/Kg, BAL cytospin 4 h post LPS
[8] = 400 μg/kg s.c., all treatment frequencies (b.i.d., q.d., q.o.d.)
[9] = 400 μg/kg s.c., b.i.d. and q.d.
[10] = i.t. 100, 40, 10 and 4 μg/kg, 1 h before or 1 h after LPS, BAL 8 h post LPS

B1: PA401: del6F17KF21KE70KN71K IL-8 mutant; modified IL-8 with increased GAG binding affinity and down-regulated GPCR activity (protein, UniProt P10145 23-99, looked up, variant del1-6 F17K F21K E70K N71K)
Interleukin-8: AVLPRCQCIKTYSKPKHPKKIKELRVIESGPHCANTEIIVKLSDGRELCLDPKENWVQRVVEKFLKRAKKS
Q: With B1 as the molecule, how does the “inhibition of cell infiltration in the BAL compared with Dexamethasone 3 mg/kg” value ([1]; PA401 200 and 400 μg/kg s.c., Dexamethasone 3 mg/kg s.c.) read?
A: comparable to that obtained with the treatment with a high dose of Dexamethasone

Q: And the “total number of cells infiltrated in lung as assessed in the BAL fluid” value ([1]; s.c. 4, 40, 200 and 400 μg/Kg, BAL 4 h post LPS instillation)?
A: dose-dependent reduction

Q: What about the “number of lymphocytes in BAL” value [1, 7] of the same molecule?
A: significant reduction

Q: And the “number of neutrophils in BAL” value [1, 7]?
A: significant reduction

Q: What about the “lowest dose with significant effect on neutrophils and lymphocytes” value ([1]; s.c., BAL 4 h post LPS) of the same molecule?
A: 4 µg/kg

Q: What about the “number of total cells in the BAL” value ([2]; 4, 40 and 400 μg/kg s.c. or i.v. at t=-5 and t=+3 h from LPS, BAL at t=8 h) of the same molecule?
A: highly significant reduction

Q: What about the “neutrophils count in the BAL” value ([2]; 4, 40 and 400 μg/kg s.c. or i.v., BAL at t=8 h) of the same molecule?
A: reduction

Q: What about the “inhibitory effect compared with intra tracheal dexamethasone” value ([2]; PA401 i.v., Dexamethasone 20 μg/mouse i.t. at t=-1 h) of the same molecule?
A: reaching the same inhibitory effects of intra tracheal administration of dexamethasone

Q: And the “activity by route of administration (intravenous vs subcutaneous)” value ([2]; i.v. vs s.c., BAL at t=8 h)?
A: more significant when administered by intravenous than by subcutaneous route

Q: And the “cell subtypes (neutrophil, macrophage, epithelial cells, lymphocyte) in BAL at the other two doses” value ([3]; 4 and 40 μg/kg s.c.)?
A: Significant effect on most of these cell subtypes

Q: And the “total cell infiltrates in BAL” value ([3]; 40 and 400 μg/kg s.c.)?
A: Highly significant effect

Q: What about the “inhibitory effect compared with Roflumilast 5 mg/kg” value ([3]; PA401 400 μg/kg s.c., Roflumilast 5 mg/kg oral) of the same molecule?
A: comparable of that obtained with Roflumilast 5 mg/kg

Q: And the “epithelial cells numbers in BAL” value ([3]; highest dose (400 μg/kg s.c.))?
A: significantly reduced

Q: What about the “lymphocyte numbers in BAL” value ([3]; highest dose (400 μg/kg s.c.)) of the same molecule?
A: significantly reduced

Q: What about the “macrophage numbers in BAL” value ([3]; highest dose (400 μg/kg s.c.)) of the same molecule?
A: significantly reduced

Q: And the “neutrophil numbers in BAL” value ([3]; highest dose (400 μg/kg s.c.))?
A: significantly reduced

Q: What about the “cigarette smoke induced increase in total cell number recovered in the BAL” value ([3]; s.c. 4, 40 and 400 μg/kg at +30 min and +6 h, BAL 24 h after last exposure) of the same molecule?
A: dose dependently inhibited

Q: And the “total cell infiltrates in BAL” value ([4]; 400 μg/kg s.c. twice a day, daily and every other day, 11-day smoke)?
A: Significant effect

Q: What about the “epithelial cells numbers in BAL” value [4, 8] of the same molecule?
A: significantly reduced

Q: And the “neutrophil numbers in BAL” value [4, 8]?
A: significantly reduced

Q: And the “lymphocyte numbers in BAL” value [4, 9]?
A: significant reduction

Q: And the “macrophage numbers in BAL” value [4, 9]?
A: significant reduction

Q: And the “activity on mixed cell infiltration, twice a day vs once a day” value ([4]; 400 μg/kg subcutaneously, 11-day repeated exposure)?
A: comparable activity

Q: What about the “inhibitory effect compared with Roflumilast 5 mg/kg” value ([4]; PA401 400 μg/kg s.c. twice and once a day, Roflumilast 5 mg/kg oral) of the same molecule?
A: comparable of that obtained with Roflumilast 5 mg/kg

Q: And the “epithelial cells numbers in BAL” value ([5]; 400 and 40 μg/kg daily s.c.)?
A: significant reduction

Q: What about the “lymphocyte numbers in BAL” value ([5]; 400 and 40 μg/kg daily s.c.) of the same molecule?
A: significant reduction

Q: And the “macrophage numbers in BAL” value ([5]; 400 and 40 μg/kg daily s.c.)?
A: significant reduction

Q: And the “neutrophil numbers in BAL” value ([5]; 400 and 40 μg/kg daily s.c.)?
A: significant reduction

Q: And the “total cell infiltrates in BAL” value ([5]; 400 and 40 μg/kg daily s.c., 11-day smoke)?
A: Significant effect

Q: What about the “inhibitory effect compared with Roflumilast and CXCR2 antagonist SCH527123” value ([5]; PA401 400 μg/kg daily s.c., Roflumilast 5 mg/kg oral, SCH527123 10 mg/kg twice a day oral) of the same molecule?
A: comparable of that obtained with Roflumilast 5 mg/kg and the CXCR2 antagonist SCH527123

Q: What about the “neutrophil number in BAL” value [6, 10] of the same molecule?
A: neutrophil number reduction

Q: What about the “total cells in BAL” value [6, 10] of the same molecule?
A: significant dose dependent reduction

Q: What about the “activity on BAL cell counts at single doses” value ([6]; i.t. doses of 100, 40 and 10 μg/kg) of the same molecule?
A: significantly active

Q: And the “improved activity of therapeutic treatment (t=+1 h) compared to prophylactic treatment (-1 h)” value ([6]; i.t., BAL 8 h post LPS)?
A: about 10%
